A short description of series [1]: Release test of free diclofenac from conjugates in 20 mM sodium phosphate buffer, 37°C (Example 11). Type of series: physicochemical. The note with it: for Release Rate in Release Test at pH 5.3: pH 5.3, 37°C; for Release Rate in Release Test at pH 5.3 / Release Rate in Release Test at pH 7.0: free diclofenac; for Release Rate in Release Test at pH 7.0: pH 7.0, 37°C. Here is the method:
(§1) (set temperature of air conditioner). After confirming that no gel was formed, this solution was dispensed. Immediately after the dissolution, the amount of free diclofenac present in each solution was measured by LC-MS/MS as an initial state (day 0 of storage). Also, the other dispensed solutions were incubated at 37° C. for 1, 3, and 7 days, and then the amount of free diclofenac was measured. […] The MS conditions are as follows. • Ionization mode: ESI-negative • Ion source temperature: 300 degrees • Capillary voltage: -4000 V

Series [2] in a line: Release test of free diclofenac, felbinac, ketoprofen or naproxen in sodium phosphate buffer (Example 23). Type of series: physicochemical. Here is the method: as §1
The mark [3] stands for this setting: pH 5.3, day 1, free drug (diclofenac, felbinac, ketoprofen or naproxen).
Setting [4] is: pH 5.3, day 3, free drug (diclofenac, felbinac, ketoprofen or naproxen).
[5] abbreviates: pH 5.3, day 7, free drug (diclofenac, felbinac, ketoprofen or naproxen).
The mark [6] stands for this setting: pH 7.0, day 1, free drug (diclofenac, felbinac, ketoprofen or naproxen).
The mark [7] stands for this setting: pH 7.0, day 3, free drug (diclofenac, felbinac, ketoprofen or naproxen).
[8] abbreviates: pH 7.0, day 7, free drug (diclofenac, felbinac, ketoprofen or naproxen).

With “Diclofenac-(2-Aminoethanol)-Alginic Acid Derivative [Compound 5b]”, the “Release Rate in Release Test at pH 5.3” value turned out to be 0.0% in series [1] (Day 1, 0.1% w/w conjugate); 0.0% in series [1] (Day 3, 0.1% w/w conjugate); 0.3% in series [1] (Day 7, 0.1% w/w conjugate). For the same substance, in series [1], the “Release behaviour in the release test at pH 7.0 (in words)” value (shortened to “Release behaviour in the release test”) is reported as “stably released”. In addition, the “Release Rate in Release Test at pH 7.0” value in series [1] (Day 1, 0.1% w/w conjugate) turned out to be 0.1%; in series [1] (Day 3, 0.1% w/w conjugate), 2.1%; in series [1] (Day 7, 0.1% w/w conjugate) it was 5.0%.

For the substance “Diclofenac-(2-Aminoethanol)-Alginic Acid Derivative [Compound 5d]”, the “Release Rate in Release Test at pH 5.3” value in series [1] (Day 1, 0.1% w/w conjugate) was determined as 0.0%; in series [1] (Day 3, 0.1% w/w conjugate), 0.1%; in series [1] (Day 7, 0.1% w/w conjugate) it was 0.4%. In addition, the “Release behaviour in the release test” value in series [1] was “stably released”. The “Release Rate in Release Test at pH 7.0” value in series [1] (Day 1, 0.1% w/w conjugate) is 0.2%; in series [1] (Day 3, 0.1% w/w conjugate), 2.4%; in series [1] (Day 7, 0.1% w/w conjugate), 5.1%.

As to “Diclofenac-(2-Amino-N-(2-Hydroxypropyl)Acetamide)-Alginic Acid Derivative [Compound 72b]”, the “Release Rate in Release Test at pH 5.3” value in series [2] (setting [3]) is listed as 0.0%; in series [2] (setting [4]), 0.1%; in series [2] (setting [5]), 0.2%. Besides, the “Release Rate in Release Test at pH 7.0” value in series [2] (setting [6]) turned out to be 0.4%; in series [2] (setting [7]), 1.5%; in series [2] (setting [8]), 3.7%.

For “Diclofenac-(Threonine Ethyl Ester)-Alginic Acid Derivative [Compound 24]”, the “Release Rate in Release Test at pH 5.3” value worked out at 0.0% in series [1] (Day 1, 0.1% w/w conjugate); 0.0% in series [1] (Day 3, 0.1% w/w conjugate); 0.0% in series [1] (Day 7, 0.1% w/w conjugate). For the same substance, the “Release Rate in Release Test at pH 7.0” value in series [1] (Day 1, 0.1% w/w conjugate) was found to be 0.0%; in series [1] (Day 3, 0.1% w/w conjugate), 1.4%; in series [1] (Day 7, 0.1% w/w conjugate), 5.4%.

“Diclofenac-(3-Amino-2,2-Difluoropropan-1-Ol)-Alginic Acid Derivative [Compound 36]”: the “Release Rate in Release Test at pH 5.3” value in series [1] (Day 1, 0.1% w/w conjugate) is 0.0%; in series [1] (Day 3, 0.1% w/w conjugate), 0.5%; in series [1] (Day 7, 0.1% w/w conjugate), 1.0%. Further, the “Release Rate in Release Test at pH 7.0” value in series [1] (Day 1, 0.1% w/w conjugate) is listed as 1.2%; in series [1] (Day 3, 0.1% w/w conjugate) it was 8.8%; in series [1] (Day 7, 0.1% w/w conjugate), 12.9%.

In the case of “Diclofenac-(N-(Aminoethyl)-2-Hydroxypropanamide)-Alginic Acid Derivative [Compound 47]”, the “Release Rate in Release Test at pH 5.3” value came out at 0.0% in series [1] (Day 1, 0.1% w/w conjugate); 0.1% in series [1] (Day 3, 0.1% w/w conjugate); 0.7% in series [1] (Day 7, 0.1% w/w conjugate). For the same substance, in series [1], the “Release behaviour in the release test” value is on record as “stably released”. For the same substance, the “Release Rate in Release Test at pH 7.0” value in series [1] (Day 1, 0.1% w/w conjugate) was 0.8%; in series [1] (Day 3, 0.1% w/w conjugate), 6.1%; in series [1] (Day 7, 0.1% w/w conjugate), 10.9%.

“Diclofenac-(2-Amino-N-(3-Hydroxypropyl)Acetamide)-Alginic Acid Derivative [Compound 76a]”: the “Release Rate in Release Test at pH 5.3” value in series [2] (setting [3]) worked out at 0.1%; in series [2] (setting [4]), 0.2%; in series [2] (setting [5]), 0.4%. The entries for the “Release Rate in Release Test at pH 7.0” value in series [2] (setting [6]), in series [2] (setting [7]) and in series [2] (setting [8]) were 0.5%, 1.3% and 3.5%, respectively.

Take “Diclofenac-(2-Amino-1-(4-Hydroxypiperidin-1-Yl)Ethan-1-One)-Alginic Acid Derivative [Compound 63b]”: the “Release Rate in Release Test at pH 5.3” value in series [2] (setting [3]) came out at 0.1%; in series [2] (setting [4]), 0.1%; in series [2] (setting [5]), 0.2%. Besides, the “Release Rate in Release Test at pH 7.0” value in series [2] (setting [6]) is given as 0.7%; in series [2] (setting [7]) it was 1.9%; in series [2] (setting [8]), 2.5%.

For the substance “Diclofenac-(2-Amino-1-(4-(Hydroxymethyl)Piperidin-1-Yl)Ethan-1-One)-Alginic Acid Derivative [Compound 58]”, the “Release Rate in Release Test at pH 5.3” value stood at 0.0% in series [2] (setting [3]), 0.2% in series [2] (setting [4]) and 0.3% in series [2] (setting [5]). The “Release Rate in Release Test at pH 7.0” value in series [2] (setting [6]) was found to be 0.3%; in series [2] (setting [7]), 1.3%; in series [2] (setting [8]), 3.1%.

Regarding “Diclofenac-(2-Aminoethoxyethanol)-Alginic Acid Derivative [Compound 14a]”, the “Release Rate in Release Test at pH 5.3” value in series [2] (setting [3]) amounted to 0.1%; in series [2] (setting [4]) it was 0.2%; in series [2] (setting [5]), 0.4%. The entries for the “Release Rate in Release Test at pH 7.0” value in series [2] (setting [6]), in series [2] (setting [7]) and in series [2] (setting [8]) were 0.6%, 1.9% and 4.2%, respectively.

In the case of “Diclofenac-(2-Amino-N-(1-Hydroxypropan-2-Yl)Acetamide)-Alginic Acid Derivative [Compound 80a]”, the “Release Rate in Release Test at pH 5.3” value in series [2] (setting [3]) was determined as 0.2%; in series [2] (setting [4]) it was 0.4%; in series [2] (setting [5]), 0.6%. The “Release Rate in Release Test at pH 7.0” value in series [2] (setting [6]) was found to be 0.8%; in series [2] (setting [7]), 2.4%; in series [2] (setting [8]) it was 5.3%.

Turning to “Diclofenac-(2-Amino-N-(1-Hydroxypropan-2-Yl)Acetamide)-Alginic Acid Derivative [Compound 80b]”, the “Release Rate in Release Test at pH 5.3” value is 0.2% in series [2] (setting [3]), 0.3% in series [2] (setting [4]) and 0.7% in series [2] (setting [5]). The “Release Rate in Release Test at pH 7.0” value in series [2] (setting [6]) amounted to 0.7%; in series [2] (setting [7]) it was 2.3%; in series [2] (setting [8]), 5.6%.

On to “Diclofenac-(2-Amino-N-(2-Hydroxyethyl)Acetamide)-Alginic Acid Derivative [Compound 53a]”, for which the “Release Rate in Release Test at pH 5.3” value in series [2] (setting [3]) was determined as 0.1%; in series [2] (setting [4]), 0.4%; in series [2] (setting [5]), 0.8%. The “Release Rate in Release Test at pH 7.0” value in series [2] (setting [6]) was found to be 0.9%; in series [2] (setting [7]), 3.7%; in series [2] (setting [8]), 10.0%.

With “Diclofenac-(2-Amino-N-(2-Hydroxyethyl)Acetamide)-Alginic Acid Derivative [Compound 53c]”, the “Release Rate in Release Test at pH 5.3” value in series [2] (setting [3]) stood at 0.5%; in series [2] (setting [4]), 0.9%; in series [2] (setting [5]) it was 1.0%. The entries for the “Release Rate in Release Test at pH 7.0” value in series [2] (setting [6]), in series [2] (setting [7]) and in series [2] (setting [8]) were 0.9%, 2.5% and 7.4%, respectively.

With “Felbinac-(2-Amino-N-(2-Hydroxyethyl)Acetamide)-Alginic Acid Derivative [Compound 84]”, the “Release Rate in Release Test at pH 5.3” value is reported as 0.2% in series [2] (setting [3]), 0.3% in series [2] (setting [4]) and 0.5% in series [2] (setting [5]). In addition, the “Release Rate in Release Test at pH 7.0” value in series [2] (setting [6]) is given as 0.9%; in series [2] (setting [7]), 3.3%; in series [2] (setting [8]) it was 7.3%.

On to “Diclofenac-(2-Amino-N-(2-Hydroxypropyl)Acetamide)-Alginic Acid Derivative [Compound 72a]”, for which the “Release Rate in Release Test at pH 5.3” value in series [2] (setting [3]) is reported as 0.0%; in series [2] (setting [4]), 0.1%; in series [2] (setting [5]) it was 0.2%. The “Release Rate in Release Test at pH 7.0” value in series [2] (setting [6]) amounted to 0.3%; in series [2] (setting [7]) it was 1.0%; in series [2] (setting [8]), 2.2%.

“Diclofenac-(2-Amino-N-(6-Hydroxyhexyl)Acetamide)-Alginic Acid Derivative [Compound 68]”: the “Release Rate in Release Test at pH 5.3” value was determined as 0.0% in series [2] (setting [3]), 0.2% in series [2] (setting [4]) and 0.3% in series [2] (setting [5]). In addition, the “Release Rate in Release Test at pH 7.0” value in series [2] (setting [6]) is on record as 0.3%; in series [2] (setting [7]), 0.9%; in series [2] (setting [8]), 2.1%.

As to “Diclofenac-(2-Aminoethoxyethanol)-Alginic Acid Derivative [Compound 14b]”, the “Release Rate in Release Test at pH 5.3” value in series [2] (setting [3]) was found to be 0.1%; in series [2] (setting [4]), 0.2%; in series [2] (setting [5]) it was 0.5%.

On to “Diclofenac-(2-Amino-N-(2-Hydroxyethyl)Acetamide)-Alginic Acid Derivative [Compound 53d]”, for which the “Release Rate in Release Test at pH 5.3” value came to 0.1% in series [2] (setting [3]), 0.5% in series [2] (setting [4]) and 0.6% in series [2] (setting [5]). Besides, the “Release Rate in Release Test at pH 7.0” value in series [2] (setting [6]) came to 0.7%; in series [2] (setting [7]), 3.0%; in series [2] (setting [8]), 9.3%.

For “Diclofenac-(2-Amino-N-(3-Hydroxypropyl)Acetamide)-Alginic Acid Derivative [Compound 76b]”, the figures for the “Release Rate in Release Test at pH 5.3” value in series [2] (setting [3]), in series [2] (setting [4]) and in series [2] (setting [5]) were 0.3%, 0.5% and 0.6%, respectively. Moreover, the entries for the “Release Rate in Release Test at pH 7.0” value in series [2] (setting [6]), in series [2] (setting [7]) and in series [2] (setting [8]) were 0.4%, 1.4% and 3.6%, respectively.

The record behind these values is patent publication US20230190943A1, “ALGINIC ACID DERIVATIVE BONDED TO NONSTEROIDAL ANTI-INFLAMMATORY COMPOUND” (MOCHIDA PHARMACEUTICAL CO., LTD., priority 2018, published 2023).
